Results taken from patent publication EP1724347A2.

Key:
[1] = target: GST-hDM2 (residues 1-188) (human) (UniProt Q00987); assay: fluorescence polarization, 25 nM labeled peptide with varying GST-hDM2, 4°C
[2] = target: GST-hDM2 (residues 1-188) (human) (UniProt Q00987); assay: 400 nM GST-hDM2 and 10 nM p53AD-Flu in the absence of pZutshi
GST-KIX = assay: fluorescence polarization
[3] = target: GST-hDM2 (residues 1-188) (human) (UniProt Q00987); assay: fluorescence polarization, competition format
protein kinase A [4] = assay: cell-based or functional assay
protein kinase A [5] = assay: method not stated

GST-hDM2 (residues 1-188) (human), sequence (Q00987 1-188): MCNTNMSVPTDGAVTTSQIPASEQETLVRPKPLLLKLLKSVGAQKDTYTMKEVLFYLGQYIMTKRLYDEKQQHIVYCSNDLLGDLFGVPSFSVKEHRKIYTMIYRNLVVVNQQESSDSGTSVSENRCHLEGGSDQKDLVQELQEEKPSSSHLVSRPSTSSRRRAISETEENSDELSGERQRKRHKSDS
GST-KIX, sequence (P45481 586-665): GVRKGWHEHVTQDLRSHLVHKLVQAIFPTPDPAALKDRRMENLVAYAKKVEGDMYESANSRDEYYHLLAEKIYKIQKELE

Substance: p53AD-Flu (peptide)
- Kd [1]: 0.261 µM
- percent bound [2]: 60%

Substance: Phosphorylated KID20 (peptide)
- Kd (GST-KIX): 48 µM

Substance: p53AD peptide (residues 15-33), not labeled
- Kd [3]: 1200 µM

Substance: PKI (peptide)
- IC50 (inhibition of PKA) (protein kinase A [4]): 0.008 µM
- Kd (protein kinase A [5]): 0.0312 µM

Substance: Phosphorylated KID31 (peptide)
- Kd (GST-KIX): 1.2 µM
